{"source": "paper PMC7060540", "target": "HIS-CbuHMGA (Catalpa bungei)", "assay": "BLI; Octet QK (Forte-Bio); GST-CbuSPL9 at 2381, 1191, 595.3, 297.6 and 148.8 nM on HIS-CbuHMGA; which protein was immobilised, buffer and temperature not told", "data": [{"substance": "GST-CbuSPL9 (natural protein)", "values": [{"measurement": "Kd", "value": 311, "unit": "nM"}]}]}
